In assay [1] the target is KSS-1::Strep (C. tropicalis). Briefly: SEC-MALS; KSS-1::Strep–SKR-1 complex co-expressed in Sf9 and co-purified (StrepTrapXT ATP/Mg wash fraction, ResourceQ, Superdex 200 Increase 10/300 GL); 20 mM Tris pH 7.5, 150 mM NaCl; right-angle static light scattering. In general terms: In gel filtration, larger molecules generally elute earlier.

What is called stoichiometry N is a count of units in the complex or per binding partner.

Substance 3xFLAG::KSS-1 (natural protein) showed a half-life of KLMT-1::mNG (fluorescence time lapse of embryos) in kss-1(−) against kss-1(+) with KLMT-1 (C. tropicalis) of 2.9 fold. In assay [1], SKR-1 (natural protein) displayed a stoichiometry N of 1.
